Measured values: patent publication US20230265179A1 (TWIST BIOSCIENCE, published 2023)

T1: CD40L (UniProt P29965 1-261, limits assumed)
T1 construct: whole, on cells; also called cytokine over-expressing Expi293 cells (CD40L)
T1 sequence (looked up): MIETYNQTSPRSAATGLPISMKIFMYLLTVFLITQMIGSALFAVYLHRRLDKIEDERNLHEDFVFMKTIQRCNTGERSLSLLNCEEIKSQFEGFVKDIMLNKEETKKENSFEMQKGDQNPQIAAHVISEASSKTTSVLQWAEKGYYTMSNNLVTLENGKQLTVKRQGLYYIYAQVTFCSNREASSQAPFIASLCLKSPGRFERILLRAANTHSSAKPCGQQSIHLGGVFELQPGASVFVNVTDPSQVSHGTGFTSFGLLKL

B1: CD40L-372 (antibody, V domains shown)
VH: EVQLLESGGGLVQPGGSLRLSCAASGFTFTSYAMTWVRQAPGKGLEWVSSITSSGGSTYYADSVKGRFTISRDNSKNTLYLQMNSLRAEDTAVYYCARAHDYDSMLMDYWGQGTLVTVSS
VL: DIQMTQSPSSLSASVGDRVTITCRASQSIRSYLNWYQQKPGKAPKLLIYATSSLHSGVPSRFSGSGSGTDFTLTISSMQPEDFATYYCQQSFSLPPTFGGGTKVEIK
B2: CD40L-371 (antibody, V domains shown)
VH: EVQLLESGGGLVQPGGSLRLSCAASGFTSNIYAMSWVRQAPGKGLEWVSAISGSGFSTYYADSVKGRFTISRDNSKNTLYLQMNSLRAEDTAVYYCAKLAQNYGDPDAFDIWGQGTLVTVSS
VL: DIQMTQSPSSLSASVGDRVTITCRASQSISKYLNWYQQKPGKAPKLLIYAATSLESGVPSRFSGSGSGTDFTLTISSLQPEDFATYYCQQSYSTPLFTFGGGTKVEIK
B3: CD40L-396 (antibody, V domains shown)
VH: EVQLLESGGGLVQPGGSLRLSCAASGFSFSSYAMAWVRQAPGKGLEWVSSISGSGGGGNTYYADSVKGRFTISRDNSKNTLYLQMNSLRAEDTAVYYCARHHERDYYGMDVWGQGTLVTVSS
VL: DIQMTQSPSSLSASVGDRVTITCRASQRISRYLNWYQQKPGKAPKLLIYRASTLQSGVPSRFSGSGSGTDFTLTISSLQPEDFATYYCQQSHSSPLTFGGGTKVEIK
B4: CD40L-358 (antibody, V domains shown)
VH: EVQLLESGGGLVQPGGSLRLSCAASGFTFSTYAMNWVRQAPGKGLEWVSAISGSGGTTYYADSVKGRFTISRDNSKNTLYLQMNSLRAEDTAVYYCARGPNNWNYVSFDYWGQGTLVTVSS
VL: DIQMTQSPSSLSASVGDRVTITCRASQYIGTYLNWYQQKPGKAPKLLIYAAANLQSGVPSRFSGSGSGTDFTLTISSLQPEDFATYYCQQSYSIPLTFGGGTKVEIK
B5: CD40L-364 (antibody, V domains shown)
VH: EVQLLESGGGLVQPGGSLRLSCAASGFTFSPYAMSWVRQAPGKGLEWVSSITGTGGSTYYADSVKGRFTISRDNSKNTLYLQMNSLRAEDTAVYYCARSWASEDFDWLPNFDFWGQGTLVTVSS
VL: DIQMTQSPSSLSASVGDRVTITCRVSQSISSYLHWYQQKPGKAPKLLIYAASSLQTGVPSRFSGSGSGTDFTLTISSLQPEDFATYYCQQSYTLPLTFGGGTKVEIK
B6: CD40L-366 (antibody, V domains shown)
VH: EVQLLESGGGLVQPGGSLRLSCAASGFGFSSYAMSWVRQAPGKGLEWVSAITGSGSTTYYADSVKGRFTISRDNSKNTLYLQMNSLRAEDTAVYYCARAHDYDSMLMDYWGQGTLVTVSS
VL: DIQMTQSPSSLSASVGDRVTITCRASQSVSRFLNWYQQKPGKAPKLLIYAASTLQPGVPSRFSGSGSGTDFTLTISSLQPEDFATYYCQQSYETPLTFGGGTKVEIK
B7: CD40L-383 (antibody, V domains shown)
VH: EVQLLESGGGLVQPGGSLRLSCAASGFTFSNYAMSWVRQAPGKGLEWVSAITGSGSTTYYADSVKGRFTISRDNSKNTLYLQMNSLRAEDTAVYYCARAHDYDSMLMDYWGQGTLVTVSS
VL: DIQMTQSPSSLSASVGDRVTITCRASQYINNYLNWYQQKPGKAPKLLIYASSTLQRGVPSRFSGSGSGTDFTLTISSLQPEDFATYYCQQSFSTPITFGGGTKVEIK
B8: CD40L-381 (antibody, V domains shown)
VH: EVQLLESGGGLVQPGGSLRLSCAASGFTFSSYDMNWVRQAPGKGLEWVAAISGSGGTTYYADSVKGRFTISRDNSKNTLYLQMNSLRAEDTAVYYCARGVYESMTGTYGYVDWFDPWGQGTLVTVSS
VL: DIQMTQSPSSLSASVGDRVTITCRASQSIPTYLNWYQQKPGKAPKLLIYAAANLQSGVPSRFSGSGSGTDFTLTISSLQPEDFATYYCQQSYATPFTFGGGTKVEIK
B9: CD40L-362 (antibody, V domains shown)
VH: EVQLLESGGGLVQPGGSLRLSCAASGFTFTSYAMSWVRQAPGKGLEWVSGISGSGINTYYADSVKGRFTISRDNSRNTLYLQMNSLRAEDTAVYYCVRSSWSDVWGQGTLVTVSS
VL: DIQMTQSPSSLSASVGDRVTITCRASQNIINYLNWYQQKPGKAPKLLIYGASTLESGVPSRFSGSGSGTDFTLTISSLQPEDFATYYCQQSYSVPLTFGGGTKVEIK
B10: CD40L-365 (antibody, V domains shown)
VH: EVQLLESGGGLVQPGGSLRLSCAASGFTFSYYAMTWVRQAPGKGLEWVSGISGSGGSSYYADSVKGRFTISRDNSKNTLYLQMNSLRAEDTAVYYCARSHDYDRQTFDYWGQGTLVTVSS
VL: DIQMTQSPSSLSASVGDRVTITCRASQSIATYLHWYQQKPGKAPKLLIYSASTLESGVPSRFSGSGSGTDFTLTISSLQPEDFATYYCQQSYRPPLTFGGGTKVEIK
B11: CD40L-355 (antibody, V domains shown)
VH: EVQLLESGGGLVQPGGSLRLSCAASGFIFSNYDMSWVRQAPGKGLEWVSGISGSGGSTSYADSVKGRFTISRDNSKNTLYLQMNSLRAEDTAVYYCARHGGYNPYGLDYWGQGTLVTVSS
VL: DIQMTQSPFSLSASVGDRVTITCRASQNILTYLNWYQQKPGKAPKLLIYGASTLRSGVPSRFSGSGSGTDFTLTISSLQPEDFATYYCQQSYRLPLTFGGGTKVEIK
B12: CD40L-360 (antibody, V domains shown)
VH: EVQLLESGGGLVQPGGSLRLSCAASGFTFGRYAMSWVRQAPGKGLEWVSDISGSGGSTYYADSVKGRFTISRDNSKNTLYLQMNSLRAEDTAVYYCARDGFRWGRAEYFQHWGQGTLVTVSS
VL: DIQMTQSPSSLSASVGDRVTITCRASQTISSYLSWYQQKPGKAPKLLIYDASTLQSGVPSRFSGSGSGTDFTLTISSLQPEDFATYYCQQSYRIPLTFGGGTKVEIK
B13: CD40L-376 (antibody, V domains shown)
VH: EVQLLESGGGLVQPGGSLRLSCAASGFTFSSYAMSWVRQAPGKGLEWVSAISASGGTTYYADSVKGRFTISRDNSKNTLYLQMNSLRAEDTAVYYCARSHDYDRQTFDYWGQGTLVTVSS
VL: DIQMTQSPSSLSASVGDRVTITCRASQSISTFLSWYQQKPGKAPKLLIYATSTLESGVPSRFSGSGSGTDFTLTISSLQPEDFATYYCQQSYSTPLTFGGGTKVEIK
B14: CD40L-380 (antibody, V domains shown)
VH: EVQLLESGGGLVQPGGSLRLSCAASGFGFSSYAMSWVRQAPGKGLEWVSAISGGGGSIYYADSVKGRFTISRDNSKNTLYLQMNSLRAEDTAVYYCARAHDYDSMLMDYWGQGTLVTVSS
VL: DIQMTQSPSSLSASVGDRVTITCRASQSVSRFLNWYQQKPGKAPKLLIYAASTLQPGVPSRFSGSGSGTDFTLTISSLQPEDFATYYCQQSYETPLTFGGGTKVEIK
B15: CD40L-359 (antibody, V domains shown)
VH: EVQLLESGGGLVQPGGSLRLSCAASGYTFSSYAMSWVRQAPGKGLEWVSGISGGGTSTYYADSVKGRFTISRDNSKNTLYLQMNSLRAEDTAVYYCARFGNHYDRTGYSDYWGQGTLVTVSS
VL: DIQMTQSPSSLSASVGDRVTITCRASQNIGGYLNWYQQKPGKAPKLLIYGASRLQSGVPSRFSGSGSGTDFTLTISSLQPEDFATYYCQQSYSTPFTFGGGTKVEIK
B16: CD40L-418 (antibody, V domains shown)
VH: EVQLLESGGGLVQPGGSLRLSCAASGFTFGRYAMSWVRQAPGKGLEWVSDISGSGGSTYYADSVKGRFTISRDNSKNTLYLQMNSLRAEDTAVYYCARDGFRWGRAEYFQHWGQGTLVTVSS
VL: DIQMTQSPSSLSASVGDRVTITCRASESITTYLNWYQQKPGKAPKLLIYTASGLQSGVPSRFSGSGSGTDFTLTISSLQPEDFATYYCQQSYTVPITFGGGTKVEIK
B17: CD40L-373 (antibody, V domains shown)
VH: EVQLLESGGGLVQPGGSLRLSCAASGFTFRTYAMGWVRQAPGKGLEWVSAISGSGGIAYYADSVKGRFTISRDNSKNTLYLQMNSLRAEDTAVYYCARHYYYDSSDAFDIWGQGTLVTISS
VL: DIQMTQSPSSLSASVGDRVTITCRGSQSISSFLNWYQQKPGKAPKLLIYAASKLHSGVPSRFSGSGSGTDFTLTISSLQPEDFATYYCQHSYSTPLTFGGGTKVEIK
B18: CD40L-404 (antibody, V domains shown)
VH: EVQLLESGGGLVQPGGSLRLSCAASGFTFRTYAMGWVRQAPGKGLEWVSAISGSGGIAYYADSVKGRFTISRDNSKNTLYLQMNSLRAEDTAVYYCARHYYYDSSDAFDIWGQGTLVTISS
VL: DIQMTQSPSSLSASVGDRVTITCRASQTISYYLNWYQQKPGKAPKLLIYDATSLQSGVPSRFSGSGSGTDFTLTISSLQPEDFATYYCQQTYSLPLTFGGGTKVEIK
B19: CD40L-382 (antibody, V domains shown)
VH: EVQLLESGGGLVQPGGSLRLSCAASGFGFSSYAMSWVRQAPGKGLEWVSAISGGGGSIYYADSVKGRFTISRDNSKNTLYLQMNSLRAEDTAVYYCATDYGDYDRLNFDLWGQGTLVTVSS
VL: DIQMTQSPSSLSASVGDRVTITCRASQSIGTFLNWYQQKPGKAPKLLIYGTSNLQSGVPSRFSGSGSGTDFTLTISSLQPEDFATYYCQQGYRTPLTFGGGTKVEIK
B20: CD40L-363 (antibody, V domains shown)
VH: EVQLLESGGGLVQPGGSLRLSCAASGFTFSDYDMSWVRQAPGKGLEWVSGISGSGATTYYADSVKGRFTISRDNSKNTLYLQMNSLRAEDTAVYYCARDSSGSYYYPLDYWGQGTLVTVSS
VL: DIQMTQSPSSLSASVGDRVTITCRTSQSISSYANWYQQKPGKAPKLLIYGASRLESGVPSRFSGSGSGTDFTLTISSLQPEDFATYYCQQTYSTPWTFGGGTKVGIK

These binders were tested against T1, CD40L (assay: flow cytometry, 100 nM IgG, CD40L over-expressing Expi293 cells over parent Expi293 cells).
Protocol: All incubations and washes were in buffer containing PBS+1% BSA. MFI Ratio is defined by the mean fluorescence intensity (MFI) of the cytokine over-expressing Expi293 cell over the Expi293 parent cell. […] EC50 was calculated in GraphPad Prism.
With B1 the “100 nM FACS (MFI Ratio)” value was 8.5 MFI ratio. In the case of B2, the “100 nM FACS (MFI Ratio)” value is reported as 3.5 MFI ratio. With B3 the “100 nM FACS (MFI Ratio)” value was 6.2 MFI ratio. For B4, the “100 nM FACS (MFI Ratio)” value was 4.2 MFI ratio. For B5, the “100 nM FACS (MFI Ratio)” value was 6.8 MFI ratio. In the case of B6, the “100 nM FACS (MFI Ratio)” value is reported as 43 MFI ratio. B7 was tested, and the “100 nM FACS (MFI Ratio)” value was 24.1 MFI ratio. For B8, the “100 nM FACS (MFI Ratio)” value was 1.7 MFI ratio. B9 was tested, and the “100 nM FACS (MFI Ratio)” value was 1060 MFI ratio. For B10, the “100 nM FACS (MFI Ratio)” value was 4.6 MFI ratio. B11 was tested, and the “100 nM FACS (MFI Ratio)” value was 7.6 MFI ratio. B12 was tested, and the “100 nM FACS (MFI Ratio)” value was 15.4 MFI ratio. In the case of B13, the “100 nM FACS (MFI Ratio)” value is reported as 13.5 MFI ratio. For B14, the “100 nM FACS (MFI Ratio)” value was 8.4 MFI ratio. With B15 the “100 nM FACS (MFI Ratio)” value was 5.1 MFI ratio. B16 was tested, and the “100 nM FACS (MFI Ratio)” value was 3.6 MFI ratio. B17 was tested, and the “100 nM FACS (MFI Ratio)” value was 1.7 MFI ratio. B18 was tested, and the “100 nM FACS (MFI Ratio)” value was 7.1 MFI ratio. In the case of B19, the “100 nM FACS (MFI Ratio)” value is reported as 10.7 MFI ratio. For B20, the “100 nM FACS (MFI Ratio)” value was 3 MFI ratio.
